Reference: US20220380768A1 (TALLAC THERAPEUTICS, published 2022)

Legend:
[1] = target: T1, human CD22 on B cells of human PBMCs (human, UniProt P20273 20-847); experiment: flow cytometry; Alexa Fluor 647-labelled antibody on CD20+ B cells of human PBMCs
T1 construct: whole, on cells; also called CD22 on human B cells
Method: (§1) Binding of humanized anti-CD22 antibodies to human or cynomolgus PBMCs was measured by flow cytometry. Trima residuals were received from Vitalant and cynomolgus monkey whole blood were received from BioIVT. Both were diluted 1:4 with Phosphate Buffered Saline (PBS, Gibco). Diluted blood was split into two tubes and underplayed with 15 mL Ficoll-Paque (GE Healthcare). Tubes were centrifuged for 30 minutes at 400×g. PBMCs were collected from the interface, washed and resuspended in FACS buffer (PBS with 0.5% Bovine Serum Albumin (Gibco)). 100K PBMCs from human and cynomolgus monkey were plated in 96-well plates and pelleted by centrifugation for five minutes at 400×g and stained at 4° C. in 100 μl Fixable Viability Dye eFluor 780 (Thermo Fisher) diluted 1:4000 in PBS. Cells were centrifuged and stained at 4° C. in 100 μl FACS buffer for 30 minutes containing FcR Blocking Reagent (Miltenyi Biotec), anti-CD20 and Alexa Fluor 647 conjugated CD22 binding antibodies, which were labeled using Molecular Probes Alexa Fluor 647 Protein Labeling kit (Molecular Probes) according to manufacturer's protocol. Cells were centrifuged and washed twice in 200 μl FACS buffer and fixed in 100 μl 0.5% paraformaldehyde. Cells were analyzed on Attune NxT Flow Cytometer (Thermo Fisher), with subsequent data analysis by Flowjo 10.7 (Treestar). Dead cells were excluded by gating on the eFluor 780-negative population. CD20+ cells were gated to identify B cells and median fluorescent intensity for CD22 was determined.

[2] = target: T2, cynomolgus monkey CD22 on B cells of cynomolgus PBMCs (cynomolgus monkey); experiment: flow cytometry; Alexa Fluor 647-labelled antibody on CD20+ B cells of cynomolgus PBMCs
T2 construct: whole, on cells; also called cynomolgus CD22; Cyno CD22
Method: as §1

[3] = target: T3, human CD22 (d1 to d7 domain according to NP_001762.2) (human, UniProt P20273 20-687); experiment: SPR; summary table, column 'CD22 KD (nM)'
T3 construct: domain: d1 to d7 domain; also called human CD22-gly; Siglec-2

[4] = target: T1, human CD22 on B cells of human PBMCs; experiment: flow cytometry; Alexa Fluor 647-labelled antibody, human PBMCs
Method: as §1
(§2) The fold increase in binding was determined by calculating the ratio of CD22 median fluorescent intensity on CD20⁺ over CD20⁻ cells.

[5] = target: T2, cynomolgus monkey CD22 on B cells of …; experiment: flow cytometry; Alexa Fluor 647-labelled antibody, cynomolgus PBMCs
Method: as §1, §2

[6] = target: T3, human CD22 (d1 to d7 domain according …); experiment: SPR; mAb supernatant captured on protein A chip, human CD22 injected
Method: Binding of humanized anti-CD22 antibodies to human CD22 was measured by surface plasmon resonance (SPR). For assessment of binding by SPR, biotinylated protein A (15 μg/mL) was immobilized to the surface of an NLC chip. 30 μL of mAb supernatant was added to 150 μL of PBS-T and captured over the protein A surface. Serial dilutions of human CD22-gly (300 nM, 3× dilution) were injected over the mAb-coated chips, and binding kinetics were determined. Chips were regenerated using 4:1 v/v of Pierce IgG elution butter/4M NaCl.

B1: TNT70 (antibody, human IgG1, kappa, V domains shown)
VH: QVQLLESGGGVVQPGGSLRLSCAASGFAFSIYDMNWVRQAPGKGLEWVSAISSGGGTTYYADSVKGRFTISRDNAKNSLYLQMNSLRAEDTAVYYCARHSGYGTHWGVLFAYWGRGTLVTVSS
VL: DIQMTQSPSSLSASVGDRVTITCRASQDIHGYLNWYQQKPGKAPKLLIYYTSILHSGVPSRFSGSGSGTDFTLTISSLQPEDFATYFCQQGNTLPWTFGQGTKLEIKR
In the case of B1, the “CD22 Median Fluorescent Intensity on CD20+ cells” value (shortened to “CD22 Median Fluorescent Intensity”) [1] is reported as 1560 and the “CD22 Median Fluorescent Intensity” value [2] is reported as 1290.

B2: TNT86 (antibody, human IgG1, kappa, V domains shown)
VH: QVQLLESGGGVVQPGGSLRLSCAASGFAFSIYDMNWVRQAPGKGLEWVSAISSGGGTTYYADSVKGRFTISRDNAKNSLYLQMNSLRAEDTAVYYCARHSGYGTHWGVLFAYWGRGTLVTVSS
VL: DIVMTQTPLSLSVTPGQPASISCRASQDIHGYLNWYQQKPGQSPQLLIYYTSILHSGVPDRFSGSGSGTDFTLKISRVEAEDVGVYFCQQGNTLPWTFGGGTKLEIKR
In the case of B2, the Kd [3] is reported as 1.1 nM, the “CD22: CD20+/CD20- (ratio of median fluorescent intensity)” value [4] is reported as 23.9 fold and the “CD22: CD20+/CD20- (ratio of median fluorescent intensity)” value [5] is reported as 10.9 fold. For the same binder, the Kd [6] was 1.09 nM, the koff [6] was 0.000141 s⁻¹ and the kon [6] was 130000 M⁻¹ s⁻¹. The “CD22 Median Fluorescent Intensity” value [1] was 1570 and the “CD22 Median Fluorescent Intensity” value [2] was 1430.

B3: TNT79 (antibody, human IgG1, kappa, V domains shown)
VH: EVQLVESGGGLVQPGGSLRLSCAASGFTFSSYEMNWVRQAPGKGLEWVSYISSSGSTIYYADSVKGRFTISRDNAKNSLYLQMNSLRAEDTAVYYCARHSGYGTHWGVLFAYWGRGTLVTVSS
VL: DIQMTQSPSSLSASVGDRVTITCRASQSISSYLNWYQQKPGKAPKLLIYAASSLQSGVPSRFSGSGSGTDFTLTISSLQPEDFATYYCQQGNTLPWTFGQGTKLEIKR
For B3, the Kd [3] was 23 nM, the “CD22 Median Fluorescent Intensity” value [1] was 1300 and the “CD22 Median Fluorescent Intensity” value [2] was 349.

B4: TNT73 (antibody, human IgG1, kappa, V domains shown)
VH: EVQLVESGGGLVQPGGSLRLSCAASGFAFSIYDMSWVRQAPGKGLEWVAYISSGGGTTYYPDTVKGRFTISRDNSKNTLYLQMNSLRAEDTAVYYCARHSGYGTHWGVLFAYWGRGTLVTVSS
VL: DIQMTQSPSSVSASVGDRVTITCRASQDIHGYLAWYQQKPGKAPKLLIYYTSSLQSGVPSRFSGSGSGTDFTLTISSLQPEDFATYYCQQGNTLPWTFGQGTKLEIKR
With B4 the Kd [3] was 14 nM, the “CD22: CD20+/CD20- (ratio of median fluorescent intensity)” value [4] was 19.9 fold and the “CD22: CD20+/CD20- (ratio of median fluorescent intensity)” value [5] was 1.9 fold. It also gave a Kd [6] of 14.5 nM, a koff [6] of 0.0023 s⁻¹ and a kon [6] of 158000 M⁻¹ s⁻¹. For the same binder, the “CD22 Median Fluorescent Intensity” value [1] was 1410 and the “CD22 Median Fluorescent Intensity” value [2] was 216.

B5: TNT80 (antibody, human IgG1, kappa, V domains shown)
VH: QVQLQESGPGLVKPSDTLSLTCTVSGFAFSIYDMSWIRQPPGKGLEWIAYISSGGGTTYYNPSLKSRVTISVDTSKNQFSLKLSSVTAADTAVYYCARHSGYGTHWGVLFAYWGRGTLVTVSS
VL: DIQMTQSPSSLSASVGDRVTITCRASQSISSYLNWYQQKPGKAPKLLIYAASSLQSGVPSRFSGSGSGTDFTLTISSLQPEDFATYYCQQGNTLPWTFGQGTKLEIKR
In the case of B5, the “CD22 Median Fluorescent Intensity” value [1] is reported as 1210 and the “CD22 Median Fluorescent Intensity” value [2] is reported as 159.

B6: TNT87 (antibody, human IgG1, kappa, V domains shown)
VH: EVQLVESGGGLVQPGGSLRLSCAASGFTFSSYEMNWVRQAPGKGLEWVSYISSSGSTIYYADSVKGRFTISRDNAKNSLYLQMNSLRAEDTAVYYCARHSGYGTHWGVLFAYWGRGTLVTVSS
VL: DIVMTQTPLSLSVTPGQPASISCRASQDIHGYLNWYQQKPGQSPQLLIYYTSILHSGVPDRFSGSGSGTDFTLKISRVEAEDVGVYFCQQGNTLPWTFGGGTKLEIKR
With B6 the Kd [3] was 0.7 nM, the “CD22 Median Fluorescent Intensity” value [1] was 1440 and the “CD22 Median Fluorescent Intensity” value [2] was 1370.

B7: TNT69 (antibody, human IgG1, kappa, V domains shown)
VH: EVQLVESGGGLVQPGGSLRLSCAASGFAFSIYDMSWVRQAPGKGLEWVAYISSGGGTTYYPDTVKGRFTISRDNSKNTLYLQMNSLRAEDTAVYYCARHSGYGTHWGVLFAYWGRGTLVTVSS
VL: DIQMTQSPSSLSASVGDRVTITCRASQDIHGYLNWYQQKPGKAPKLLIYYTSILHSGVPSRFSGSGSGTDFTLTISSLQPEDFATYFCQQGNTLPWTFGQGTKLEIKR
In the case of B7, the Kd [3] is reported as 0.6 nM, the “CD22: CD20+/CD20- (ratio of median fluorescent intensity)” value [4] is reported as 25.4 fold and the “CD22: CD20+/CD20- (ratio of median fluorescent intensity)” value [5] is reported as 14.9 fold. It also gave a Kd [6] of 0.624 nM, a koff [6] of 0.000126 s⁻¹ and a kon [6] of 201000 M⁻¹ s⁻¹. For the same binder, the “CD22 Median Fluorescent Intensity” value [1] was 1610 and the “CD22 Median Fluorescent Intensity” value [2] was 1410.

B8: TNT85 (antibody, human IgG1, kappa, V domains shown)
VH: EVQLVESGGGLVQPGGSLRLSCAASGFAFSIYDMSWVRQAPGKGLEWVAYISSGGGTTYYPDTVKGRFTISRDNSKNTLYLQMNSLRAEDTAVYYCARHSGYGTHWGVLFAYWGRGTLVTVSS
VL: DIVMTQTPLSLSVTPGQPASISCRASQDIHGYLNWYQQKPGQSPQLLIYYTSILHSGVPDRFSGSGSGTDFTLKISRVEAEDVGVYFCQQGNTLPWTFGGGTKLEIKR
B8 was tested, and the Kd [3] was 1.3 nM, the “CD22: CD20+/CD20- (ratio of median fluorescent intensity)” value [4] was 23.1 fold and the “CD22: CD20+/CD20- (ratio of median fluorescent intensity)” value [5] was 9.6 fold. It also gave a Kd [6] of 1.25 nM, a koff [6] of 0.000169 s⁻¹ and a kon [6] of 135000 M⁻¹ s⁻¹. For the same binder, the “CD22 Median Fluorescent Intensity” value [1] was 1580 and the “CD22 Median Fluorescent Intensity” value [2] was 1380.

B9: TNT74 (antibody, human IgG1, kappa, V domains shown)
VH: QVQLLESGGGVVQPGGSLRLSCAASGFAFSIYDMNWVRQAPGKGLEWVSAISSGGGTTYYADSVKGRFTISRDNAKNSLYLQMNSLRAEDTAVYYCARHSGYGTHWGVLFAYWGRGTLVTVSS
VL: DIQMTQSPSSVSASVGDRVTITCRASQDIHGYLAWYQQKPGKAPKLLIYYTSSLQSGVPSRFSGSGSGTDFTLTISSLQPEDFATYYCQQGNTLPWTFGQGTKLEIKR
For B9, the Kd [3] was 16 nM, the Kd [6] was 15.6 nM and the “CD22 Median Fluorescent Intensity” value [1] was 1310.

B10: TNT75 (antibody, human IgG1, kappa, V domains shown)
VH: EVQLVESGGGLVQPGGSLRLSCAASGFTFSSYEMNWVRQAPGKGLEWVSYISSSGSTIYYADSVKGRFTISRDNAKNSLYLQMNSLRAEDTAVYYCARHSGYGTHWGVLFAYWGRGTLVTVSS
VL: DIQMTQSPSSVSASVGDRVTITCRASQDIHGYLAWYQQKPGKAPKLLIYYTSSLQSGVPSRFSGSGSGTDFTLTISSLQPEDFATYYCQQGNTLPWTFGQGTKLEIKR
With B10 the Kd [3] was 30 nM, the “CD22: CD20+/CD20- (ratio of median fluorescent intensity)” value [4] was 26.7 fold and the “CD22: CD20+/CD20- (ratio of median fluorescent intensity)” value [5] was 6.7 fold. The Kd [6] was 30 nM, the koff [6] was 0.0084 s⁻¹ and the kon [6] was 280000 M⁻¹ s⁻¹. The “CD22 Median Fluorescent Intensity” value [1] was 1630 and the “CD22 Median Fluorescent Intensity” value [2] was 588.

B11: TNT76 (antibody, human IgG1, kappa, V domains shown)
VH: QVQLQESGPGLVKPSDTLSLTCTVSGFAFSIYDMSWIRQPPGKGLEWIAYISSGGGTTYYNPSLKSRVTISVDTSKNQFSLKLSSVTAADTAVYYCARHSGYGTHWGVLFAYWGRGTLVTVSS
VL: DIQMTQSPSSVSASVGDRVTITCRASQDIHGYLAWYQQKPGKAPKLLIYYTSSLQSGVPSRFSGSGSGTDFTLTISSLQPEDFATYYCQQGNTLPWTFGQGTKLEIKR
With B11 the “CD22 Median Fluorescent Intensity” value [1] was 1190 and the “CD22 Median Fluorescent Intensity” value [2] was 140.

B12: TNT78 (antibody, human IgG1, kappa, V domains shown)
VH: QVQLLESGGGVVQPGGSLRLSCAASGFAFSIYDMNWVRQAPGKGLEWVSAISSGGGTTYYADSVKGRFTISRDNAKNSLYLQMNSLRAEDTAVYYCARHSGYGTHWGVLFAYWGRGTLVTVSS
VL: DIQMTQSPSSLSASVGDRVTITCRASQSISSYLNWYQQKPGKAPKLLIYAASSLQSGVPSRFSGSGSGTDFTLTISSLQPEDFATYYCQQGNTLPWTFGQGTKLEIKR
For B12, the Kd [3] was 25 nM, the “CD22: CD20+/CD20- (ratio of median fluorescent intensity)” value [4] was 19.8 fold and the “CD22: CD20+/CD20- (ratio of median fluorescent intensity)” value [5] was 1.2 fold. The Kd [6] was 24.9 nM, the koff [6] was 0.00485 s⁻¹ and the kon [6] was 195000 M⁻¹ s⁻¹. The “CD22 Median Fluorescent Intensity” value [1] was 1210 and the “CD22 Median Fluorescent Intensity” value [2] was 112.
